The test system of the series is Saccharomyces cerevisiae. Briefly: protein stability index of tFT-peptide fusion (C-terminal peptide) (PSI (0-1 scale)); higher = more stable (slower turnover). The settings on record: temperature: 30 C. How it is done:
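MPS profiling in S. cerevisiae of the yeast C-terminome library: the last 12 aa of each annotated ORF are fused to the C-terminus of a sfGFP-mCherry timer, after a GGGS linker. Cells are FACS-sorted into 8 mCherry/sfGFP bins and deep-sequenced. PSI runs from 0 (unstable) to 1 (stable); wild type and das1Δ backgrounds, two technical replicates each.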

[1] abbreviates: genetic background: das1 deletion.

± gives the standard deviation of the averaged measurements.

Our source for the protein stability index values is the supplement of paper PMC10724198.

Consider PIIKEILQEYES [DNA2 C-terminal 12 aa], for which the protein stability index amounted to 0.6914 ± 0.0039 under setting [1] and 0.729 ± 0.013 (genetic background: wild type).

PIKLKSDEEMII [YFL040W C-terminal 12 aa]: the protein stability index came to 0.707 ± 0.025 under setting [1] and 0.6724 ± 0.0042 (genetic background: wild type).

In the case of PILCTSEDFMGW [RGP1 C-terminal 12 aa], the protein stability index by setting is: under setting [1], 0.709 ± 0.0088; (genetic background: wild type) 0.732 ± 0.049.

For the sequence PKWTDCEGDLTT [DET1 C-terminal 12 aa], the protein stability index by setting is: under setting [1], 0.712 ± 0.011; (genetic background: wild type) 0.7387 ± 0.0071.

Consider PLKDLDPNAFRG [YOX1 C-terminal 12 aa], for which the protein stability index reads like this: under setting [1], 0.6861 ± 0.006; (genetic background: wild type) 0.692 ± 0.021.

With “PLNDQVCPNSPL [YLR154W-F C-terminal 12 aa]”, the protein stability index is 0.7273 ± 0.0053 under setting [1] and 0.694 ± 0.033 (genetic background: wild type).

On to PLYSMVAGENSL [SPO23 C-terminal 12 aa], for which the protein stability index is, setting by setting: under setting [1], 0.678 ± 0.021; (genetic background: wild type) 0.688 ± 0.023.

On to PMIENLRFPNAR [YEH2 C-terminal 12 aa], for which the protein stability index under setting [1] worked out at 0.688 ± 0.023 and the protein stability index (genetic background: wild type) came out at 0.7039 ± 0.0046.

Consider PMIKRQCEIIQF [TIP41 C-terminal 12 aa], for which the protein stability index worked out at 0.645 ± 0.029 under setting [1] and 0.676 ± 0.0097 (genetic background: wild type).

For the sequence PPAGIPPPPPLP [PAN1 C-terminal 12 aa], the protein stability index stood at 0.719 ± 0.0093 under setting [1] and 0.711 ± 0.025 (genetic background: wild type).

Consider PPSDPSSIKIRN [KIN28 C-terminal 12 aa], for which the protein stability index was 0.71109 ± 0.00022 under setting [1] and 0.729 ± 0.0076 (genetic background: wild type).

As for PQENHDNKEEQS [HEK2 C-terminal 12 aa], the protein stability index turned out to be 0.676 ± 0.019 under setting [1] and 0.688 ± 0.033 (genetic background: wild type).

Take PQGAGRGRGMPM [CCT7 C-terminal 12 aa]: the protein stability index is, setting by setting: under setting [1], 0.69 ± 0.0089; (genetic background: wild type) 0.678 ± 0.034.

For the sequence PQMDDHTVISEI [MLO127 C-terminal 12 aa], the protein stability index came to 0.745 ± 0.029 under setting [1] and 0.6854 ± 0.006 (genetic background: wild type).

As to PRDEQDSRKRNR [IBD2 C-terminal 12 aa], the protein stability index is, setting by setting: under setting [1], 0.699 ± 0.0085; (genetic background: wild type) 0.7315 ± 0.0047.

Regarding PREILLRLMNDK [PRP6 C-terminal 12 aa], the protein stability index runs as follows: under setting [1], 0.726 ± 0.024; (genetic background: wild type) 0.704 ± 0.096.

PRRSDLRPEFAE [VMA9 C-terminal 12 aa]: the protein stability index reads like this: under setting [1], 0.672 ± 0.022; (genetic background: wild type) 0.665 ± 0.018.

Sequence PSAYVLFYERIF [UBP5 C-terminal 12 aa] registered a protein stability index under setting [1] of 0.71 ± 0.015 and a protein stability index (genetic background: wild type) of 0.678 ± 0.018.

PSFSNSQWRIIF [YOR169C C-terminal 12 aa]: the protein stability index under setting [1] was determined as 0.714 ± 0.021 and the protein stability index (genetic background: wild type) stood at 0.694 ± 0.016.

On to “PSYAVCDNILVT [YOL013W-B C-terminal 12 aa]”, for which the protein stability index runs as follows: under setting [1], 0.67 ± 0.04; (genetic background: wild type) 0.653 ± 0.017.

For the sequence PTFLIPLRLCFV [EMA19 C-terminal 12 aa], the protein stability index is 0.329 ± 0.02 under setting [1] and 0.336 ± 0.0072 (genetic background: wild type).

Consider PTPPTPPTPPQQ [ECM19 C-terminal 12 aa], for which the protein stability index runs as follows: under setting [1], 0.701 ± 0.014; (genetic background: wild type) 0.687 ± 0.027.

As for PTTRPYIYEPRK [ELA1 C-terminal 12 aa], the protein stability index under setting [1] came out at 0.696 ± 0.011 and the protein stability index (genetic background: wild type) amounted to 0.662 ± 0.017.

On to PTWQIVEDIRNT [PMT3 C-terminal 12 aa], for which the protein stability index reads like this: under setting [1], 0.728 ± 0.025; (genetic background: wild type) 0.718 ± 0.038.

Regarding PVIKKSKKCAIL [CDC42 C-terminal 12 aa], the protein stability index by setting is: under setting [1], 0.757 ± 0.0059; (genetic background: wild type) 0.6072 ± 0.0055.

Turning to “PVRHQTGMHFCI [YHR032W-A C-terminal 12 aa]”, the protein stability index came out at 0.721 ± 0.009 under setting [1] and 0.682 ± 0.029 (genetic background: wild type).

Regarding PVVFHSGPVVWK [YLR415C C-terminal 12 aa], the protein stability index runs as follows: under setting [1], 0.72 ± 0.034; (genetic background: wild type) 0.6969 ± 0.0058.

Consider PYLEEAYSNLEE [PPX1 C-terminal 12 aa], for which the protein stability index is 0.685 ± 0.0024 under setting [1] and 0.722 ± 0.048 (genetic background: wild type).

Consider QCPVCRSPLPPL [TUL1 C-terminal 12 aa], for which the protein stability index worked out at 0.714 ± 0.023 under setting [1] and 0.742 ± 0.013 (genetic background: wild type).

On to QEAGAFTFNEDF [RNR2 C-terminal 12 aa], for which the protein stability index runs as follows: under setting [1], 0.726 ± 0.018; (genetic background: wild type) 0.711 ± 0.0081.

In the case of “QEFVCFLFWPLT [YOR335W-A C-terminal 12 aa]”, the protein stability index amounted to 0.63 ± 0.0097 under setting [1] and 0.6034 ± 0.0059 (genetic background: wild type).

Take QELCADSTIYHM [LIP1 C-terminal 12 aa]: the protein stability index came to 0.687 ± 0.017 under setting [1] and 0.734 ± 0.065 (genetic background: wild type).

As for QELLKLLENEKK [SLK19 C-terminal 12 aa], the protein stability index runs as follows: under setting [1], 0.727 ± 0.029; (genetic background: wild type) 0.726 ± 0.047.

On to “QFSFKAVTFLLI [YOR314W-A C-terminal 12 aa]”, for which the protein stability index amounted to 0.629 ± 0.048 under setting [1] and 0.563 ± 0.052 (genetic background: wild type).

For QILLDKLNAVKK [HIT1 C-terminal 12 aa], the protein stability index under setting [1] was 0.66 ± 0.03 and the protein stability index (genetic background: wild type) came out at 0.653 ± 0.019.

With QKDSRGKKKIKK [YMR114C C-terminal 12 aa], the protein stability index is, setting by setting: under setting [1], 0.691 ± 0.026; (genetic background: wild type) 0.63611 ± 0.00024.

Take QKKEEAKHKASE [UFD2 C-terminal 12 aa]: the protein stability index was determined as 0.711 ± 0.0087 under setting [1] and 0.721 ± 0.067 (genetic background: wild type).

On to QNNSQGFLREII [TDA7 C-terminal 12 aa], for which the protein stability index runs as follows: under setting [1], 0.6961 ± 0.004; (genetic background: wild type) 0.6925 ± 0.0034.

Turning to QNRFISINKIFW [YDR133C C-terminal 12 aa], the protein stability index is, setting by setting: under setting [1], 0.7034 ± 0.0032; (genetic background: wild type) 0.6671 ± 0.0016.

With QRRTSLDYGGYF [TAF3 C-terminal 12 aa], the protein stability index under setting [1] amounted to 0.708 ± 0.02 and the protein stability index (genetic background: wild type) was found to be 0.725 ± 0.011.

In the case of QSLVESPPPYVP [SNA4 C-terminal 12 aa], the protein stability index runs as follows: under setting [1], 0.6915 ± 0.0048; (genetic background: wild type) 0.7 ± 0.015.

Take QTQLCKRKKKLT [VIK1 C-terminal 12 aa]: the protein stability index amounted to 0.687 ± 0.024 under setting [1] and 0.608 ± 0.051 (genetic background: wild type).

As to QTVSTYTKVTPK [NCE103 C-terminal 12 aa], the protein stability index by setting is: under setting [1], 0.715 ± 0.016; (genetic background: wild type) 0.702 ± 0.025.

On to QVLGTEEPTVRT [PGM2 C-terminal 12 aa], for which the protein stability index reads like this: under setting [1], 0.696 ± 0.046; (genetic background: wild type) 0.6625 ± 0.0017.

Turning to QVVDTIKDVHRC [YBR197C C-terminal 12 aa], the protein stability index is, setting by setting: under setting [1], 0.7 ± 0.027; (genetic background: wild type) 0.706 ± 0.021.

For RALVDAIQLRGV [CGI121 C-terminal 12 aa], the protein stability index is, setting by setting: under setting [1], 0.68 ± 0.024; (genetic background: wild type) 0.663 ± 0.0088.

Regarding RDFFFKNVCVKM [TBS1 C-terminal 12 aa], the protein stability index was found to be 0.623 ± 0.018 under setting [1] and 0.56 ± 0.0057 (genetic background: wild type).

On to RDLQSALVRQLL [CAD1 C-terminal 12 aa], for which the protein stability index runs as follows: under setting [1], 0.718 ± 0.025; (genetic background: wild type) 0.68 ± 0.021.

Take RDRLVESCHFTQ [CIN4 C-terminal 12 aa]: the protein stability index under setting [1] came out at 0.722 ± 0.023 and the protein stability index (genetic background: wild type) was 0.706 ± 0.022.

For the sequence RDVTDWWESREI [CCZ1 C-terminal 12 aa], the protein stability index under setting [1] was found to be 0.7553 ± 0.0041 and the protein stability index (genetic background: wild type) amounted to 0.7652 ± 0.0026.

REKAEAEAEKKK [RPL13A C-terminal 12 aa]: the protein stability index runs as follows: under setting [1], 0.704 ± 0.014; (genetic background: wild type) 0.68 ± 0.0053.

For the sequence RELGFLFGLNAL [ULS1 C-terminal 12 aa], the protein stability index by setting is: under setting [1], 0.751 ± 0.011; (genetic background: wild type) 0.6855 ± 0.0018.

RELWDEEKEIVL [KES1 C-terminal 12 aa]: the protein stability index runs as follows: under setting [1], 0.704 ± 0.033; (genetic background: wild type) 0.73 ± 0.037.

Consider RERAKKLVTWLI [SSY1 C-terminal 12 aa], for which the protein stability index worked out at 0.6701 ± 0.0019 under setting [1] and 0.475 ± 0.026 (genetic background: wild type).

Consider RFIRTANKKDYL [IMP4 C-terminal 12 aa], for which the protein stability index is, setting by setting: under setting [1], 0.671 ± 0.0071; (genetic background: wild type) 0.7335 ± 0.0025.

“RHHEQSHGQEDH [YLR361C-A C-terminal 12 aa]”: the protein stability index was determined as 0.6985 ± 0.0034 under setting [1] and 0.6868 ± 0.0011 (genetic background: wild type).

RHICVGAKLCKF [MCH4 C-terminal 12 aa]: the protein stability index by setting is: under setting [1], 0.8165 ± 0.0035; (genetic background: wild type) 0.818 ± 0.11.

On to RHSCGRQMRVLA [AUA1 C-terminal 12 aa], for which the protein stability index worked out at 0.6614 ± 0.0011 under setting [1] and 0.248 ± 0.0083 (genetic background: wild type).

As for RIEMDLALTEPL [ORC6 C-terminal 12 aa], the protein stability index stood at 0.691 ± 0.016 under setting [1] and 0.685 ± 0.015 (genetic background: wild type).

For RIRQEIIKTKLL [EMP47 C-terminal 12 aa], the protein stability index runs as follows: under setting [1], 0.67995 ± 0.00042; (genetic background: wild type) 0.234 ± 0.032.

For the sequence RKESSGGCCIIC [RAS1 C-terminal 12 aa], the protein stability index is 0.738 ± 0.014 under setting [1] and 0.709 ± 0.011 (genetic background: wild type).

Take RKLLERSNKFHI [PET127 C-terminal 12 aa]: the protein stability index reads like this: under setting [1], 0.689 ± 0.009; (genetic background: wild type) 0.746 ± 0.088.

Turning to RKPPGFFDEGFM [FLC3 C-terminal 12 aa], the protein stability index by setting is: under setting [1], 0.733 ± 0.061; (genetic background: wild type) 0.6965 ± 0.0051.

“RKSENYLNGRQT [YNL067W-B C-terminal 12 aa]”: the protein stability index reads like this: under setting [1], 0.681 ± 0.017; (genetic background: wild type) 0.721 ± 0.0088.

As to RKVPYKIIPYVY [ERG24 C-terminal 12 aa], the protein stability index runs as follows: under setting [1], 0.514 ± 0.019; (genetic background: wild type) 0.5005 ± 0.0021.

Turning to RLANIQSFFQRQ [TVP23 C-terminal 12 aa], the protein stability index reads like this: under setting [1], 0.7155 ± 0.0018; (genetic background: wild type) 0.726 ± 0.064.

On to RLIGELGKLTED [YNL115C C-terminal 12 aa], for which the protein stability index is 0.683 ± 0.0088 under setting [1] and 0.701 ± 0.037 (genetic background: wild type).
